These results are taken from patent US20050025764A1 (published 2005).

In test [1] the target is human CD20 (human) (UniProt P11836). The test can be described thus: fixed Ramos cell ELISA, IgG, on-rate format: 5 min IgG step and 5 min second antibody step, goat anti-human IgG-HRP, OD 450. A general note: An ELISA detects its analyte on a solid surface through an enzyme-linked reagent.
Test [2] concerns the target T1, human CD20 (human, UniProt P11836 1-297).
T1 construct: whole, on cells; Never used as a purified protein; also called hCD20; Bp35
T1 sequence (looked up): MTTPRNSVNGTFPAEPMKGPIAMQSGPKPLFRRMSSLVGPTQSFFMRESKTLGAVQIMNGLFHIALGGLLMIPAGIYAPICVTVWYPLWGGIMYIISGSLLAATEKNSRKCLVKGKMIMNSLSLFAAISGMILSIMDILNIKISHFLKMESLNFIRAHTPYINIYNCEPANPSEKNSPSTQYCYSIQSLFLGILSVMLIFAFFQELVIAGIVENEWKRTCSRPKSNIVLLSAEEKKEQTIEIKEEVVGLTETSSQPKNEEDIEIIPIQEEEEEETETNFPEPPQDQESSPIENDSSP
The test can be described thus: IgG binding to SKW 6.4 B lymphoma cells, free antibody by ELISA, KinExA equilibrium software. The procedure: (§1) SKW 6.4 cells were grown in DMEM media supplemented with 10% FCS and harvested at 5-10×10⁵ cells per ml. […] For human peripheral blood B cells, fresh CD19 positively sorted B cells were obtained from Allcells. These cells were washed two times in PBS with 1% BSA and resuspended at a concentration of 8×10⁷/ml.
(§2) Twelve, 3 fold serial dilutions were then made and 100ul of each dilution placed in a 96 well plate. To each dilution […] of antibody at 100 ng/ml was added and the plate incubated at 37620 C., 5% CO₂ for 4 hours. Each sample was then filtered with a 96 well 1 micron filter (Millipore) to remove the cells and bound antibody. Free antibody in solution was then quantified using an ELISA. Briefly, free IgG was captured in a 96 well plate coated with 1 mg/ml of anti-human kappa antibody (Southern Biotechnology) and detected using an anti-human Fc antibody coupled with HRP (Southern Biotechnology). The plate was developed using Fast TMB substrate (Pierce) and read at 450 nm.
(§3) The Kd of the antibody was then determined using the KinExA equilibrium software for an unknown antigen concentration. The OD450 value for each serial dilution was fitted with an estimated antigen concentration and the actual antibody concentration. The Kd and actual antigen concentration were then calculated.

Test [3] concerns the target T1, human CD20. The test can be described thus: IgG binding to primary human peripheral blood B cells (CD19 sorted), KinExA equilibrium software. The procedure:
as §1, §2, §3
Background: In KinExA the mixture passes briefly over coated beads that capture the unbound partner.

In test [4] the target is T1, human CD20. Description: cell-based or functional assay.
Test [5] has as its target T1, human CD20. Description: IgG binding to SKW 6.4 cells, KinExA equilibrium software. The procedure: as §1, §2, §3
For test [6], the target named is T1, human CD20. Description: IgG binding to SKW 6.4 cells over time, free antibody by ELISA, direct kinetics KinExA software. The procedure:
SKW 6.4 cells were grown in DMEM media supplemented with 10% FCS and harvested at 5-10×10⁵ cells per ml. […] An equal volume of antibody at 100 ng/ml in PBS with 1% BSA at 37620 C. was then added to the cells and the timing for the experiment started. At time intervals from 60 seconds to 10800 seconds a sample of the antibody cell solution was sampled and filtered to remove cells and bound antibody. Free antibody remaining at each time point was then quantified using the ELISA described above.
The kinetics for the antibody cell reaction was calculated using the direct kinetics KinExA software. The OD450 value for each time point was fitted using the previously calculated Kd and antigen concentration and the Kon and Koff for the reaction calculated.

Test [7] deals with T1, human CD20. The test can be described thus: fixed Ramos cell ELISA, OD 450 nm.

A word on the EC50 (read off the curve): it is the concentration that produces a half-maximal response. The low end stands for an effect from little substance, the high end for a need for much substance. A word on the Kd: it is the concentration at which binding is half-saturated. High values mean weaker binding, low ones tighter binding. By koff is commonly meant a measure of how fast the partners let go of each other. A lower koff goes with slow dissociation. As usually defined, the kon is the second-order rate constant of association. A higher kon goes with faster complex formation.

In test [1], “commercial RITUXAN (Oncology Supply Co.) (antibody)” had a concentration giving a half-maximal response (EC50 (read off the curve)) of 1 µg/mL.

B1: AME 33 IgG (antibody, V domains shown)
VH: EVQLVQSGAEVKKPGESLKISCKGSGRTFTSYNMHWVRQMPGKGLEWMGAIYPLTGDTSYNQKSKLQVTISADKSISTAYLQWSSLKASDTAMYYCARSTYVGGDWQFDVWGKGTTVTVSS
VL: EIVLTQSPGTLSLSPGERATLSCRASSSVPYIHWYQQKPGQAPRLLIYATSALASGIPDRFSGSGSGTDFTLTISRLEPEDFAVYYCQQWLSNPPTFGQGTKLEIKR
notes: Full IgG; also called AME 33 antibody
B1 displayed a dissociation constant (Kd) in test [2] of 0.097 nM. The molecule further came in with a Kd in test [3] of 0.113 nM. In addition, the “ADCC, Estimated EC50s, ug/ml (Wil-2 cells as target)” value in test [4] is 0.0063 µg/mL. For the same molecule, the “fold enhancement of Kd compared to the C2B8 antibody” value in test [5] is 10 fold. In test [6], this molecule had a koff of 7.7e-05 s⁻¹ and an on-rate constant (kon) of 780000 M⁻¹ s⁻¹. Further, in test [7], the “maximum OD relative to the C2B8 antibody” value was about 1.5 times.
